Experiment [1] addresses T1, Fc-eNKG2D5 (Y152A/Y199F) (human).
T1 construct: also called eNKG2D5 A|F; Fc-NKG2D.AF
Kind of experiment: ELISA, Fc-eNKG2D coated, MicAbody titrated from 300 nM. As for the experimental part: (§1) The binding affinities of α1-α2 variants to the extracellular domains of natural (wild-type) NKG2D and non-natural eNKG2D proteins were analyzed using a plate-based ELISA method. Each of the SEC fractionated natural Fc-NKG2D and non-natural Fc-eNKG2D fusions were coated overnight at 4° C. onto separate wells of Nunc Maxisorp 96 well plates (Thermo Fisher Scientific, Waltham, Mass.) using a coating concentration of 1 μg/mL in phosphate-buffered saline (PBS). The plates were washed three times in PBS/0.05% Tween-20 (PBS-T) at 20-22° C., and blocked with 0.5% bovine serum albumin in PBS (PBS-B) for 2 hours at 20-22° C. MicAbodies were titrated against the plate-bound natural or non-natural Fc-NKG2D fusions for 60 minutes at 20-22° C. in PBS/0.5% bovine serum albumin (BSA)/0.05% Tween-20 (PBS-BT), washed 3 times with PBS-T at 20-22° C., and the bound bispecific proteins detected using an HRP-conjugated anti-human kappa in PBS-BT (Abcam, Cambridge Mass.) and developed with 1-Step™ Ultra TMB ELISA Substrate Solution (Thermo Fisher Scientific, Waltham, Mass.).

The next experiment deals with T2, Fc-eNKG2D9 (Y152V/Y199F) (human).
T2 construct: also called eNKG2D9 V|F
The experiment is described as above. As to the method: as §1

In a further experiment the target is T3, Fc-eNKG2D8 (Y152T/Y199F) (human).
T3 construct: also called eNKG2D8 T|F
The experiment is described as above. As for the experimental part:
as §1

The target of experiment [2] is T4, Fc-eNKG2D13 (Y152E/Y199E) (human).
T4 construct: also called eNKG2D13 E|E
The description is as above. As to the method:
as §1

Experiment [3] has as its target T5, Fc-eNKG2D12 (Y152D/Y199D) (human).
T5 construct: also called eNKG2D12 D|D
The experiment is described as above. As to the method:
as §1

The target of another experiment is T6, Fc-eNKG2D7 (Y152S/Y199F) (human).
T6 construct: also called eNKG2D7 S|F
The experiment is described as above. As to the method: as §1

In another experiment the target is T7, Fc-eNKG2D6 (Y152L/Y199F) (human).
T7 construct: also called eNKG2D6 L|F
The experiment is described as above. As to the method: as §1

Experiment [4] deals with T8, Fc-NKG2D.wt (human).
T8 construct: also called NKG2D.wt Y|Y; natural Fc-NKG2D
The experiment is described as follows: ELISA (called Kd in the text). As to the method: as §1
In general terms: ELISA stands for enzyme-linked immunosorbent assay.

Experiment [5] addresses T8, Fc-NKG2D.wt. Kind of experiment: ELISA, Fc-NKG2D coated, MicAbody titrated from 300 nM. As to the method: as §1
Another experiment addresses T9, Fc-eNKG2D14 (Y152L) (human).
T9 construct: also called eNKG2D14 L|Y
The experiment is described as above. As for the experimental part: as §1

Another experiment concerns the target T10, Fc-eNKG2D2 (Y152S) (human).
T10 construct: also called eNKG2D2 S|Y; not shown: human IgG1 Fc (without Fab domains)
Described as above. As for the experimental part:
as §1

A further experiment has as its target T11, Fc-eNKG2D3 (Y152T) (human).
T11 construct: also called eNKG2D3 T|Y
Described as above. As to the method: as §1

Another experiment deals with T12, Fc-eNKG2D4 (Y152V) (human).
T12 construct: also called eNKG2D4 V|Y
The description is as above. As to the method:
as §1

Experiment [6] deals with T8, Fc-NKG2D.wt. The experiment is described as follows: ELISA of rituximab-MicAbodies.
The target of experiment [7] is T1, Fc-eNKG2D5 (Y152A/Y199F). The experiment is described as follows: ELISA of rituximab-MicAbodies.
Experiment [8] has as its target T13, Fc-NKG2D.Y152A (human).
T13 construct: also called eNKG2D A|Y; Fc-NKG2D.YA
Kind of experiment: ELISA and Octet, bispecific antibody fused format.

Experiment [9] addresses T14, Y199A mutant NKG2D ectodomain (His-avitag, biotinylated) (human).
T14 construct: not shown: N-terminal His-avitag
T14 chain: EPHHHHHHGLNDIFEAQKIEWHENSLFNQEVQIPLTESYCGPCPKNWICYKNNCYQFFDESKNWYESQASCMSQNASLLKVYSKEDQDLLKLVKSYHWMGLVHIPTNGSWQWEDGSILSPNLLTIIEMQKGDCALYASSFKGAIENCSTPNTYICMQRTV
The experiment is described as follows: ELISA, ligand-Fc coated, biotinylated NKG2D titrated. As for the experimental part: (§2) In addition to purifying the above 3 Fc-fusion proteins NKG2D ligand-Fc fusion proteins MICB-Fc, ULBP1-Fc, ULBP2-Fc, ULBP3-Fc, and ULBP4-Fc were purchased from R&D Systems, Inc. (Minneapolis, Minn.). Binding of the different α1-α2 domain-Fc fusions to both natural and non-natural NKG2D ectodomain proteins was analyzed using a plate-based ELISA method. All of the natural and non-natural α1-α2 domain-Fc fusions were coated overnight at 4° C. onto separate wells of Maxisorp 96 well plates using a coating concentration of 2 μg/ml in phosphate-buffered saline (PBS). The plates were washed 3-times in PBS/0.05% Tween20 at 20-22° C., and blocked with 0.5% bovine serum albumin for 2 hours. The biotinylated natural and non-natural NKG2D receptor proteins were titrated against the plate-bound NKG2D ligands for 2 hours at 20-22° C., washed 3 times with PBS/0.05% Tween20 at 20-22° C., and the bound NKG2D proteins subsequently detected using a streptavidin-HRP secondary detection step and developed with 1-Step Ultra TMB Elisa.

Experiment [10] deals with T15, double Y152A plus Y199A mutant NKG2D ectodomain (His-avitag, biotinylated) (human).
T15 construct: not shown: N-terminal His-avitag
T15 chain: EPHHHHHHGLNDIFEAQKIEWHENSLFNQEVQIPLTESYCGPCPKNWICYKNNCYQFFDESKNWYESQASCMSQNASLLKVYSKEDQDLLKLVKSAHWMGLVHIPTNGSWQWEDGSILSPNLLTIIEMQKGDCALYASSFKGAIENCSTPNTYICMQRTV
The experiment is described as above. As for the experimental part: as §2

In experiment [11] the target is T16, Y152A mutant NKG2D ectodomain (His-avitag, biotinylated) (human).
T16 construct: also called Y152A non-natural NKG2D receptor; not shown: N-terminal His-avitag
T16 chain: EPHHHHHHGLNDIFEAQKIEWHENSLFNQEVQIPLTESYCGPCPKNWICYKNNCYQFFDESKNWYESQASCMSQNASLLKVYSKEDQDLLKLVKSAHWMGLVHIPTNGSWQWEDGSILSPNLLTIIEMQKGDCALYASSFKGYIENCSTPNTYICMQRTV
The experiment is described as above. As for the experimental part:
as §2

Experiment [12] addresses T13, Fc-NKG2D.Y152A. The experiment is described as follows: ELISA of rituximab-MicAbodies.

T1 sequence (chain, as listed by the source Y152A Y199F Y152A Y199F limits assumed): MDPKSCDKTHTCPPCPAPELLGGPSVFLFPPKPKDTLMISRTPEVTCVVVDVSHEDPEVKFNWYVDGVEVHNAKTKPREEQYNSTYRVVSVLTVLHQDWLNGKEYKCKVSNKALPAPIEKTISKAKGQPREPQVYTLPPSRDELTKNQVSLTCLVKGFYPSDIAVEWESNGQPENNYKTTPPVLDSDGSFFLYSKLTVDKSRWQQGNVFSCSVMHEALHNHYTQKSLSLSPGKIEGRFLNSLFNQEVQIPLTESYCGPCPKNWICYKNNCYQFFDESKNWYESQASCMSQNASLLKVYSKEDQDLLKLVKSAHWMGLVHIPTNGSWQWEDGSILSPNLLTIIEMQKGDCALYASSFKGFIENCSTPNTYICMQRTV
T4 sequence (chain, as listed by the source Y152E Y199E Y152E Y199E limits assumed): as the sequence (chain, as listed by the source Y152A Y199F Y152A Y199F limits assumed) above, with A312E, F359E counted along it
T3 sequence (chain, as listed by the source Y152T Y199F Y152T Y199F limits assumed): as the sequence (chain, as listed by the source Y152A Y199F Y152A Y199F limits assumed) above, with A312T counted along it
T7 sequence (chain, as listed by the source Y152L Y199F Y152L Y199F limits assumed): as the sequence (chain, as listed by the source Y152A Y199F Y152A Y199F limits assumed) above, with A312L counted along it
T2 sequence (chain, as listed by the source Y152V Y199F Y152V Y199F limits assumed): as the sequence (chain, as listed by the source Y152A Y199F Y152A Y199F limits assumed) above, with A312V counted along it
T5 sequence (chain, as listed by the source Y152D Y199D Y152D Y199D limits assumed): as the sequence (chain, as listed by the source Y152A Y199F Y152A Y199F limits assumed) above, with A312D, F359D counted along it
T6 sequence (chain, as listed by the source Y152S Y199F Y152S Y199F limits assumed): as the sequence (chain, as listed by the source Y152A Y199F Y152A Y199F limits assumed) above, with A312S counted along it

B1: ULBP2.wt rituximab-MicAbody (bispecific antibody, human IgG1, kappa)
heavy: not shown
light: QIVLSQSPAILSASPGEKVTMTCRASSSVSYIHWFQQKPGSSPKPWIYATSNLASGVPVRFSGSGSGTSYSLTISRVEAEDAATYYCQQWTSNPPTFGGGTKLEIKRTVAAPSVFIFPPSDEQLKSGTASVVCLLNNFYPREAKVQWKVDNALQSGNSQESVTEQDSKDSTYSLSSTLTLSKADYEKHKVYACEVTHQGLSSPVTKSFNRGECAPTSSSGGGGSEPHSLSYDITVIPKFRPGPRWCAVQGQVDEKTFLHYDCGNKTVTPVSPLGKKLNVTTAWKAQNPVLREVVDILTEQLRDIQLENYTPKEPLTLQARMSCEQKAEGHSSGSWQFSFDGQIFLLFDSEKRMWTTVHPGARKMKEKWENDKVVAMSFHYFSMGDCIGWLEDFLMGMDSTLEPS
notes: also called ULBP2 MicAbody
By EC50 is commonly meant the concentration giving half of the maximal effect. For B1, the binding result (with Fc-eNKG2D5 (Y152A/Y199F) [1]; in the experiment with Fc-eNKG2D9 (Y152V/Y199F); in the experiment with Fc-eNKG2D8 (Y152T/Y199F); in experiment [2]; in experiment [3]; in the experiment with Fc-eNKG2D7 (Y152S/Y199F)) was “no binding (tested: 300 nM)” in each case. Besides, in the experiment with Fc-eNKG2D6 (Y152L/Y199F), the binding result is “no binding (tested: 300 nM)”. The EC50 in the experiment with Fc-NKG2D.wt [4] came out at 1.4 nM; in the experiment with Fc-NKG2D.wt [5], 1.41 nM; in the experiment with Fc-eNKG2D14 (Y152L), 87.6 nM; in the experiment with Fc-eNKG2D2 (Y152S), 34.8 nM; in the experiment with Fc-eNKG2D3 (Y152T), 31.1 nM; with Fc-eNKG2D4 (Y152V), 35.8 nM.

B2: rituximab-ULBP2.S3 MicAbody (bispecific antibody, human IgG1, kappa)
heavy: not shown
light: QIVLSQSPAILSASPGEKVTMTCRASSSVSYIHWFQQKPGSSPKPWIYATSNLASGVPVRFSGSGSGTSYSLTISRVEAEDAATYYCQQWTSNPPTFGGGTKLEIKRTVAAPSVFIFPPSDEQLKSGTASVVCLLNNFYPREAKVQWKVDNALQSGNSQESVTEQDSKDSTYSLSSTLTLSKADYEKHKVYACEVTHQGLSSPVTKSFNRGECAPTSSSGGGGSEPHSLSYDITVIPKFRPGPRWCAVQGQVDEKTFLHYDCGNKTVTPVSPLGKKLNVTTAWKAQNPVLREVVDILTEQLWDIQLENYTPKEPLTLQARMSCEQKAEGHSSGSWQFSFDGQIFLLFDSEKRMWTTVHPGARKMKEKWENDKVVATKLYLWSMGDCIGWLEDFLMGMDSTLEPS
notes: also called ULBP2.S3 as a MicAbody
For B2, the binding result is “no binding” with Fc-NKG2D.wt [6], “no binding” with Fc-eNKG2D5 (Y152A/Y199F) [7] and “binds” with Fc-NKG2D.Y152A [8].

B3: MICA-Fc (α1-α2-α3-Fc fusion, made in 293 cells) (Fc fusion)
chain: EPHSLRYNLTVLSWDGSVQSGFLTEVHLDGQPFLRCDRQKCRAKPQGQWAEDVLGNKTWDRETRDLTGNGKDLRMTLAHIKDQKEGLHSLQEIRVCEIHEDNSTRSSQHFYYDGELFLSQNLETKEWTMPQSSRAQTLAMNVRNFLKEDAMKTKTHYHAMHADCLQELRRYLKSGVVLRRTVPPMVNVTRSEASEGNITVTCRASGFYPWNITLSWRQDGVSLSHDTQQWGDVLPDGNGTYQTWVATRISQGEEQRFTCYMEHSGNHSTHPVPSGKIEGRMDPKSCDKTHTCPPCPAPELLGGPSVFLFPPKPKDTLMISRTPEVTCVVVDVSHEDPEVKFNWYVDGVEVHNAKTKPREEQYNSTYRVVSVLTVLHQDWLNGKEYKCKVSNKALPAPIEKTISKAKGQPREPQVYTLPPSRDELTKNQVSLTCLVKGF
With B3, the binding result in experiment [9], in experiment [10] and in experiment [11] was “no binding” each time.

B4: rituximab-ULBP2.R MicAbody (bispecific antibody, human IgG1, kappa)
heavy: not shown
light: QIVLSQSPAILSASPGEKVTMTCRASSSVSYIHWFQQKPGSSPKPWIYATSNLASGVPVRFSGSGSGTSYSLTISRVEAEDAATYYCQQWTSNPPTFGGGTKLEIKTVAAPSVFIFPPSDEQLKSGTASVVCLLNNFYPREAKVQWKVDNALQSGNSQESVTEQDSKDSTYSLSSTLTLSKADYEKHKVYACEVTHQGLSSPVTKSFNRGECAPTSSSGGGGSEPHSLSYDITVIPKFRPGPRWCAVQGQVDEKTFLHYDCGNKTVTPVSPLGKKLNVTTAWKAQNPVLREVVDILTEQLWDIQLENYTPKEPLTLQARMSCEQKAEGHSSGSWQFSFDGQIFLLFDSEKRMWTTVHPGARKMKEKWENDKVVATLLWGWSMGDCIGWLEDFLMGMDSTLEPS
notes: also called rituximab-MicAbody with ULBP2 variant R
As for B4, the binding result with Fc-NKG2D.Y152A [12] was “no binding”.

The values are drawn from patent US20200239541A1 (XYPHOS BIOSCIENCES, published 2020).
